B1: P140I: MGMT polypeptide with mutation P140I (protein)
chain: MDKDCEMKRTTLDSPLGKLELSGCEQGLHEIKLLGKGTSAADAVEVPAPAAVLGGPEPLMQCTAWLNAYFHQPEAIEEFPVPALHHPVFQQESFTRQVLWKLLKVVKFGEVISYQQLAALAGNPKAARAVGGAMRGNPVIILIPCHRVVCSSGAVGNYSGGLAVKEWLLAHEGHRLGKPGLGGSSGLAGAWLKGAGATSGSPPAGRN
B2: P140Q: MGMT polypeptide with mutation P140Q (protein)
chain: MDKDCEMKRTTLDSPLGKLELSGCEQGLHEIKLLGKGTSAADAVEVPAPAAVLGGPEPLMQCTAWLNAYFHQPEAIEEFPVPALHHPVFQQESFTRQVLWKLLKVVKFGEVISYQQLAALAGNPKAARAVGGAMRGNPVQILIPCHRVVCSSGAVGNYSGGLAVKEWLLAHEGHRLGKPGLGGSSGLAGAWLKGAGATSGSPPAGRN
B3: G156V: MGMT polypeptide with mutation G156V (protein)
chain: MDKDCEMKRTTLDSPLGKLELSGCEQGLHEIKLLGKGTSAADAVEVPAPAAVLGGPEPLMQCTAWLNAYFHQPEAIEEFPVPALHHPVFQQESFTRQVLWKLLKVVKFGEVISYQQLAALAGNPKAARAVGGAMRGNPVPILIPCHRVVCSSGAVVNYSGGLAVKEWLLAHEGHRLGKPGLGGSSGLAGAWLKGAGATSGSPPAGRN
B4: Y158H: MGMT polypeptide with mutation Y158H (protein)
chain: MDKDCEMKRTTLDSPLGKLELSGCEQGLHEIKLLGKGTSAADAVEVPAPAAVLGGPEPLMQCTAWLNAYFHQPEAIEEFPVPALHHPVFQQESFTRQVLWKLLKVVKFGEVISYQQLAALAGNPKAARAVGGAMRGNPVPILIPCHRVVCSSGAVGNHSGGLAVKEWLLAHEGHRLGKPGLGGSSGLAGAWLKGAGATSGSPPAGRN
B5: G156I: MGMT polypeptide with mutation G156I (protein)
chain: MDKDCEMKRTTLDSPLGKLELSGCEQGLHEIKLLGKGTSAADAVEVPAPAAVLGGPEPLMQCTAWLNAYFHQPEAIEEFPVPALHHPVFQQESFTRQVLWKLLKVVKFGEVISYQQLAALAGNPKAARAVGGAMRGNPVPILIPCHRVVCSSGAVINYSGGLAVKEWLLAHEGHRLGKPGLGGSSGLAGAWLKGAGATSGSPPAGRN
B6: G156P: MGMT polypeptide with mutation G156P (protein)
chain: MDKDCEMKRTTLDSPLGKLELSGCEQGLHEIKLLGKGTSAADAVEVPAPAAVLGGPEPLMQCTAWLNAYFHQPEAIEEFPVPALHHPVFQQESFTRQVLWKLLKVVKFGEVISYQQLAALAGNPKAARAVGGAMRGNPVPILIPCHRVVCSSGAVPNYSGGLAVKEWLLAHEGHRLGKPGLGGSSGLAGAWLKGAGATSGSPPAGRN
B7: G156A: MGMT polypeptide with mutation G156A (protein)
chain: MDKDCEMKRTTLDSPLGKLELSGCEQGLHEIKLLGKGTSAADAVEVPAPAAVLGGPEPLMQCTAWLNAYFHQPEAIEEFPVPALHHPVFQQESFTRQVLWKLLKVVKFGEVISYQQLAALAGNPKAARAVGGAMRGNPVPILIPCHRVVCSSGAVANYSGGLAVKEWLLAHEGHRLGKPGLGGSSGLAGAWLKGAGATSGSPPAGRN
B8: Y158F: MGMT polypeptide with mutation Y158F (protein)
chain: MDKDCEMKRTTLDSPLGKLELSGCEQGLHEIKLLGKGTSAADAVEVPAPAAVLGGPEPLMQCTAWLNAYFHQPEAIEEFPVPALHHPVFQQESFTRQVLWKLLKVVKFGEVISYQQLAALAGNPKAARAVGGAMRGNPVPILIPCHRVVCSSGAVGNFSGGLAVKEWLLAHEGHRLGKPGLGGSSGLAGAWLKGAGATSGSPPAGRN
B9: P140R: MGMT polypeptide with mutation P140R (protein)
chain: MDKDCEMKRTTLDSPLGKLELSGCEQGLHEIKLLGKGTSAADAVEVPAPAAVLGGPEPLMQCTAWLNAYFHQPEAIEEFPVPALHHPVFQQESFTRQVLWKLLKVVKFGEVISYQQLAALAGNPKAARAVGGAMRGNPVRILIPCHRVVCSSGAVGNYSGGLAVKEWLLAHEGHRLGKPGLGGSSGLAGAWLKGAGATSGSPPAGRN

Test system: U251 human glioblastoma cell line
Test: in vitro FM-HCR assay of MGMT activity (mPlum O^6MeG reporter plasmid)
Format: cell-based
Conditions: for Reporter expression (%) mean, O^6BG: 100 μM O^6BG; for Reporter expression (%) mean, O^6BG / Reporter expression (%) mean, DMSO: U251 cells, flow cytometry 24 h after transfection, damaged/undamaged reporter, inversely related to MGMT activity; for Reporter expression (%) mean, DMSO: 0.1% DMSO; for MGMT activity (a.u.) DMSO / MGMT activity (% of WT) DMSO: DMSO condition; for MGMT activity (a.u.) DMSO / MGMT activity (a.u.) O^6BG: determined from percent reporter expression; for MGMT activity (% of WT) DMSO / MGMT activity (% of WT) O^6BG: relative to wild-type MGMT in same condition; for Relative MGMT activity (%): MGMT activity (a.u.) in O^6BG divided by DMSO x 100, higher values indicate resistance; for MGMT activity (a.u.) O^6BG / MGMT activity (% of WT) O^6BG: O^6BG condition; for Ratio percent reporter expression (O^6BG/DMSO): lower values indicate resistance to O^6BG; for O^6BG resistance relative to WT (%): percentage difference in relative MGMT activity between variant and wild-type MGMT
How it was run: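 U251 cells transfected with MGMT variant plasmid, mPlum O^6MeG reporter (or undamaged mPlum plasmid) and BFP control, in 100 μM O^6BG or 0.1% DMSO; flow cytometry at 24 h. mPlum count×intensity normalized to BFP; percent reporter expression = damaged/undamaged ×100, inversely related to MGMT activity.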

| Molecule | Reporter expression (%) mean, O^6BG [%] | Reporter expression (%) mean, DMSO [%] | MGMT activity (a.u.) DMSO [a.u.] | MGMT activity (% of WT) DMSO | Relative MGMT activity (%) | MGMT activity (a.u.) O^6BG [a.u.] | MGMT activity (% of WT) O^6BG | Ratio percent reporter expression (O^6BG/DMSO) | O^6BG resistance relative to WT (%) |
| --- | --- | --- | --- | --- | --- | --- | --- | --- | --- |
| B1 | 31.0 | 14.7 | 6.82 | 126.1 % of WT | 47.3 | 3.23 | 225.8 % of WT | 2.11 | 79.0 |
| B2 | 49.0 | 15.3 | 6.52 | 120.7 % of WT | 31.3 | 2.04 | 142.9 % of WT | 3.20 | 18.4 |
| B3 | 55.0 | 36.8 | 2.72 | 50.3 % of WT | 66.8 | 1.82 | 127.3 % of WT | 1.50 | 152.8 |
| B4 | 30.3 | 23.3 | 4.29 | 79.3 % of WT | 76.9 | 3.30 | 230.8 % of WT | 1.30 | 191.1 |
| B5 | 54.0 | 42.0 | 2.38 | 44.0 % of WT | 77.8 | 1.85 | 129.6 % of WT | 1.29 | 194.3 |
| B6 | 47.3 | 41.0 | 2.44 | 45.1 % of WT | 86.6 | 2.11 | 147.9 % of WT | 1.15 | 227.8 |
| B7 | 79.0 | 32.3 | 3.10 | 57.4 % of WT | 40.8 | 1.27 | 88.6 % of WT | 2.45 | 54.5 |
| B8 | 61.3 | 12.3 | 8.11 | 150.0 % of WT | 20.1 | 1.63 | 114.1 % of WT | 4.97 | −23.9 |
| B9 | 38.3 | 25.3 | 3.95 | 73.0 % of WT | 66.1 | 2.61 | 182.6 % of WT | 1.51 | 150.1 |

— patent US20250135039A1, “INHIBITOR-RESISTANT MGMT MODIFICATIONS AND MODIFICATION OF MGMT-ENCODING NUCLEIC ACIDS” (Ensoma, Inc., priority 2022, published 2025)
